Columns and labels:
Conditions in all cases: both partners purified
[1] = target: T1, MBP-KPNA7 (wild type) (human, UniProt A9QM74 1-516); assay: pull-down; bead binding assay with a range of GST-GFP-hnRNP R-bNLS concentrations (10 nM to 2.7 μM) on KPNA7 proteins; binding curve, apparent KD
T1 construct: also called WT KPNA7; MBP-KPNA7 WT; source: E. coli BL21, purified (amylose resin, eluted with maltose, dialyzed)

[2] = target: T2, MBP-KPNA7(E344Q) (human, UniProt A9QM74 1-516, E344Q); assay: as above
T2 construct: Substitution found in epilepsy patients (occurs in nature); also called KPNA7 mutant E344Q; E344Q KPNA7; source: E. coli BL21, purified (amylose resin, eluted with maltose, dialyzed)
T2 sequence (A9QM74 whole entry E344Q): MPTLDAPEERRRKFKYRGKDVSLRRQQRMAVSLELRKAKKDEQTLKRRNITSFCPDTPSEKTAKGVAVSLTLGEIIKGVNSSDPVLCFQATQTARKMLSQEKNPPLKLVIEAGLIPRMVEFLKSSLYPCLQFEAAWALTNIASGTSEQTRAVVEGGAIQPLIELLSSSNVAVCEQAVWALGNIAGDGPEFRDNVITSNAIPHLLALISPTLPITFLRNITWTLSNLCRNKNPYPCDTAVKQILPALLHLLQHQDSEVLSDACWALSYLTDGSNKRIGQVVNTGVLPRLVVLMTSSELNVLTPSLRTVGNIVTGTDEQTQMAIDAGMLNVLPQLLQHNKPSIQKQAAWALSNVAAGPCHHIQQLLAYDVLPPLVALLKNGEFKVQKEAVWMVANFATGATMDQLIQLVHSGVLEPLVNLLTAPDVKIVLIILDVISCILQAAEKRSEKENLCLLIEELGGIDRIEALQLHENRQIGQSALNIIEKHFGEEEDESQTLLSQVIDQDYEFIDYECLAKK

[3] = target: T3, MBP-KPNA7(P339A) (human, UniProt A9QM74 1-516, P339A); assay: pull-down; MBP fusion proteins on amylose resin (1 μg/μl), GST-GFP-NLS constructs in solution (250 nM or indicated concentrations) with Imp-β (250 nM); 2 hrs at 4 °C, 20 mM Tris pH 8, 200 mM NaCl, 1 mM EDTA, 1 mM DTT, 0.05% Triton X-100; western blot
T3 construct: Substitution found in epilepsy patients (occurs in nature); also called KPNA7 mutant P339A; P339A KPNA7; source: E. coli BL21, purified (amylose resin, eluted with maltose, dialyzed)
T3 sequence (A9QM74 whole entry P339A, the tested form may be a part): as the sequence (A9QM74 whole entry E344Q) above, with P339A, Q344E counted along it

[4] = target: T2, MBP-KPNA7(E344Q); assay: as above

T1 sequence (A9QM74 whole entry): as the sequence (A9QM74 whole entry E344Q) above, with Q344E counted along it

Kd [1]: ~123 nM
Kd [2]: ~223 nM
binding result [3]: binds
fold less binding than WT KPNA7 [4]: ~10 fold
B1: GST-GFP-hnRNP R bipartite NLS (domain or fragment, UniProt O43390 565-589, looked up)
chain: RGGNVGGKRKADGYNQPDSKRRQTN
notes: hnRNP R, bipartite NLS (bNLS, a.a. 565-589), cloned into pGEX-4T1-GFP; The limits are those that the text gives for the NLS; also called hnRNP R bNLS; hnRNP R-bNLS; source: E. coli BL21, purified (glutathione resin)
